Laboratory results from IntAct's records for PubMed 30559189.

B1: Lipoprotein lipase (Homo sapiens), P06858 (parent)
chain: MESKALLVLTLAVWLQSLTASRGGVAAADQRRDFIDIESKFALRTPEDTAEDTCHLIPGVAESVATCHFNHSSKTFMVIHGWTVTGMYESWVPKLVAALYKREPDSNVIVVDWLSRAQEHYPVSAGYTKLVGQDVARFINWMEEEFNYPLDNVHLLGYSLGAHAAGIAGSLTNKKVNRITGLDPAGPNFEYAEAPSRLSPDDADFVDVLHTFTRGSPGRSIGIQKPVGHVDIYPNGGTFQPGCNIGEAIRVIAERGLGDVDQLVKCSHERSIHLFIDSLLNEENPSKAYRCSSKEAFEKGLCLSCRKNRCNNLGYEINKVRAKRSSKMYLKTRSQMPYKVFHYQVKIHFSGTESETHTNQAFEISLYGTVAESENIPFTLPEVSTNKTYSFLIYTEVDIGELLMLKLKWKSDSYFSWSDWWSSPGFAIQKIRVKAGETQKKVIFCSREKVSHLQKGKAPAVFVKCHDKSLNKKSG
partner: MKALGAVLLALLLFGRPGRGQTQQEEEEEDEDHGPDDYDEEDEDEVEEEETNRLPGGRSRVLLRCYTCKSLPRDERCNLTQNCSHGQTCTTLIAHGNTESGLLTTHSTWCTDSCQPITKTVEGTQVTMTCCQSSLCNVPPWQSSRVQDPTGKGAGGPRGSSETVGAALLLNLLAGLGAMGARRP
B2: Glycosylphosphatidylinositol-anchored high density lipoprotein-binding protein 1 (Homo sapiens), Q8IV16 (parent)
chain: B1 partner
partner: B1 chain

Variants of: B1
Details: with hdbp1_human GPIHBP1, Q8IV16

Variant	effect of a mutation on the interaction
M404R	disrupting interaction strength
C445S	disrupting interaction strength

Variants of: B1
Details: with hdbp1_human GPIHBP1, Q8IV16
Remark: another data set of the same source

Variant	effect of a mutation on the interaction
C445Y	disrupting interaction strength

Variants of: B2
Details: with lipl_human LPL, P06858

Variant	effect of a mutation on the interaction
W109S	disrupting interaction strength
